Patent US20100278818A1

What was measured:
[1] = target: Tn antigen (GalNAc alpha-O-Ser/Thr of a polypeptide chain) at the surface of human tumor cells; assay: flow cytometry, biotinylated IVIG control and SA-PE on EpCam+CD45- ovarian cancer cells from patient ascitis
[2] = target: Tn antigen (GalNAc alpha-O-Ser/Thr of a polypeptide chain) at the surface of human tumor cells; assay: flow cytometry MFI against antibody concentration on Shin3 cells; design: unit not given here
[3] = target: Tn antigen (GalNAc alpha-O-Ser/Thr of a polypeptide chain) at the plasma membrane of murine tumor cell lines; assay: flow cytometry MFI against antibody concentration on TA3HA cells
[4] = target: Tn antigen (GalNAc alpha-O-Ser/Thr of a polypeptide chain) at the surface of human tumor cells; assay: flow cytometry MFI against antibody concentration on Jurkat cells; design: unit not given here
[5] = target: Tn antigen (GalNAc alpha-O-Ser/Thr of a polypeptide chain) at the surface of human tumor cells; assay: immunohistochemistry, biotinylated chi-83D4 and avidin-HRP on 3 primary ovarian serous adenocarcinomas
[6] = target: Tn antigen (GalNAc alpha-O-Ser/Thr of a polypeptide chain) at the surface of human tumor cells; assay: flow cytometry, biotinylated chi-83D4 preincubated with GalNac (1 M), SA-PE, EpCam+CD45- ovarian cancer cells from patient ascitis
[7] = target: Tn antigen (GalNAc alpha-O-Ser/Thr of a polypeptide chain) at the surface of human tumor cells; assay: flow cytometry, biotinylated chi-83D4 and SA-PE on EpCam+CD45- ovarian cancer cells from patient ascitis (one representative patient)

MFI [1] | saturating concentration [2] | saturating concentration [3] | saturating concentration [4] | percent of tumor cells labeled [5] | MFI [6] | MFI [7] | Molecule
1810 | – | – | – | – | – | – | Intravenous immunoglobulin (Tegeline, IVIG) (antibody)
– | 20 | 50 mg/mL | 70 | 70 to 80% | 1830 | 4490 | chimeric anti-Tn (chi-83D4) mAb (antibody, human IgG1, kappa, V domains shown) VH: QVQLQQSDAELVKPGASVKISCKASGYTFTDHAIHWVKQKPEQGLEWIGYFSPGNGDIKYNEKFKGKATLTADKSSSTAYMQLNSLTSEDSAVYFCKRSYGNYDYWGQGTTLTVSS VL: DILLTQSPAILSVSPGERVSFSCRASQNIGTSIHWYQQRTNGSPRLLIKYASESVSGIPSRFSGSGSGTDFTLSINSVESEDIADYYCQHTNSWPTTFGGGTKLEIKR
